# Reference: PMC2937035
# Columns and labels:
# Experiment in all cases: protein microarray
# Conditions in all cases: Protein microarray binding buffer, salt, pH and temperature not given in the material
# [1] = test system: Npl3 (Saccharomyces cerevisiae)
# [2] = test system: Gcy1 (Saccharomyces cerevisiae)
# [3] = test system: Mdh3 (Saccharomyces cerevisiae)
# [4] = test system: Ydl124w (Saccharomyces cerevisiae)
# [5] = test system: She2 (Saccharomyces cerevisiae)
# [6] = test system: Khd1 (Hek2) (Saccharomyces cerevisiae)
# [7] = test system: Rrp5 (Saccharomyces cerevisiae)
# [8] = test system: Scp160 (Saccharomyces cerevisiae)
# [9] = test system: Pcs60 (Saccharomyces cerevisiae)
substance,measurement,setting,value
ASH1 mRNA,binding signal (normalized mean signal (Cy3); Cy5 153.8),[1],7.1
same,binding signal (normalized mean signal (Cy3); Cy5 19.6),[2],8.9
same,binding signal (normalized mean signal (Cy3); Cy5 60.2),[3],2.9
same,binding signal (normalized mean signal (Cy3); Cy5 14.6),[4],11.9
same,binding signal (normalized mean signal (Cy3); Cy5 17.8),[5],17.1
same,binding signal (normalized mean signal (Cy3); Cy5 24.0),[6],3.4
same,binding signal (normalized mean signal (Cy3); Cy5 14.6),[7],3.8
same,binding signal (normalized mean signal (Cy3); Cy5 117.7),[8],2.9
same,binding signal (normalized mean signal (Cy3); Cy5 89.8),[9],3.7
